Tests used:
[1] = molecular target: T1, recombinant soluble human MICA*008 antigen (human, UniProt Q29983 24-307); experiment: SPR (Biacore 3000), antibody captured on Protein G chip, huMICA-his analyte; power of ten not given
T1 construct: also called huIMICA-his allele *008; recombinant soluble MICA (allele 8)
T1 chain: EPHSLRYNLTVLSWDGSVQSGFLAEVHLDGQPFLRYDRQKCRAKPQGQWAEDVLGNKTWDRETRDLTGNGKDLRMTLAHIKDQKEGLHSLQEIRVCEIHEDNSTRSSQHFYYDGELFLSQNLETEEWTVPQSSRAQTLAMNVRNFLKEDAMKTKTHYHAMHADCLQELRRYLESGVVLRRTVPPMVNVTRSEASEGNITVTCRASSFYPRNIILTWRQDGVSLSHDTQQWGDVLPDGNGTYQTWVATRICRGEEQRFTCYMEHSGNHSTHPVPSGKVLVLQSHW
Procedure: (§1) Kinetics and affinity of anti-MICA/B antibodies MICA.2, 19G6, 16A5, and 71C2 towards human MICA alleles (huIMICA-his allele *002, *004, *008, and *009) were also determined on a BIACORE 3000® instrument using the following conditions: [0571] Running Buffer: HES-EP running buffer [0572] Chip: CM5 Protein G Chip Fc1: Blank. Fc2-4: ˜200Rus [0573] Ab: 5 ug/mL, 10 uL @ 10 uL/min [0574] Ag binding: 5 min association, 7 min dissociation @ 25 uL/min, [0575] Regeneration: Glycine 1.7, 10 uL @ 100 uL/min followed by 60s wash by HES-EP

[2] = molecular target: T2, recombinant soluble human MICA*004 antigen (human, UniProt Q29983 24-307); experiment: as above
T2 construct: also called huIMICA-his allele *004
T2 chain: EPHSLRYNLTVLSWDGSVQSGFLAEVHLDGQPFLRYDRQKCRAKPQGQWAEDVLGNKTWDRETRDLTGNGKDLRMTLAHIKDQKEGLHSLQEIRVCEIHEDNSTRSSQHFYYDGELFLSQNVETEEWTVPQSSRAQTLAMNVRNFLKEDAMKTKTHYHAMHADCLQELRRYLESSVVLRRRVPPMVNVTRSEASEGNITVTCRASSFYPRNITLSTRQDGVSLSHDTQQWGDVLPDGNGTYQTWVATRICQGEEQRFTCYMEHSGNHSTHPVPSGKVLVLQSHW
Procedure: as §1

[3] = molecular target: T3, recombinant soluble human MICA*002 antigen (human, UniProt Q29983 24-307); experiment: as above
T3 construct: also called huIMICA-his allele *002
T3 chain: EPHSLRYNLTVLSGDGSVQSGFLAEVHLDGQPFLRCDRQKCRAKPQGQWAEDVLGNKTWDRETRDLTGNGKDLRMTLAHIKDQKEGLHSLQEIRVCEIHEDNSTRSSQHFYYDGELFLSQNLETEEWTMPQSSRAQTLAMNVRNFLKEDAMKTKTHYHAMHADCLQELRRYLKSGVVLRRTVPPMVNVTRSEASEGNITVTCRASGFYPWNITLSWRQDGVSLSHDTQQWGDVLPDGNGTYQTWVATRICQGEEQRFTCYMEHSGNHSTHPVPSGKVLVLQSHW
Procedure: as §1

[4] = molecular target: T4, recombinant soluble human MICA*009 antigen (human, UniProt Q29983 24-307); experiment: as above
T4 construct: also called huIMICA-his allele *009
T4 chain: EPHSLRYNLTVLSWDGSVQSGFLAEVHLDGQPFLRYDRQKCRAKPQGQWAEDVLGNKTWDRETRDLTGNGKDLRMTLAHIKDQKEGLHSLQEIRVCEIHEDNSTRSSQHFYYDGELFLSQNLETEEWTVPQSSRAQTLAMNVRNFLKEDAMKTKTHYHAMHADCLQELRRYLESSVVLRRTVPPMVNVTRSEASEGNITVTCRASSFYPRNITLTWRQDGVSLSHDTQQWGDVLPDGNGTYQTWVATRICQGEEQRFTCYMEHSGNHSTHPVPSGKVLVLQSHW
Procedure: as §1

[5] = molecular target: T5, human MICA/B endogenously expressed on RPMI-8226 cells (human, UniProt Q29983 24-383); experiment: flow cytometry, tumor cells with endogenous MICA/B
T5 construct: whole, on cells
T5 sequence (looked up): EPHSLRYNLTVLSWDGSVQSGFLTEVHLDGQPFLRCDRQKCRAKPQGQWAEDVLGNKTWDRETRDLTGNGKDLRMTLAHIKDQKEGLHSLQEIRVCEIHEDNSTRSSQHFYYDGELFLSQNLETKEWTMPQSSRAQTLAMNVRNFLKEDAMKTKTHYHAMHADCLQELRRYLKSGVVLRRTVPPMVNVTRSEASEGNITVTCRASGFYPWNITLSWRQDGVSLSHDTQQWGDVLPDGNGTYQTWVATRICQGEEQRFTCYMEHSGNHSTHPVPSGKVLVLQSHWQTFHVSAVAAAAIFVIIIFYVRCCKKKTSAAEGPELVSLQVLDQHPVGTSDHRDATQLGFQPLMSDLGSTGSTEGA

[6] = molecular target: T6, human MICA/B endogenously expressed on HeLa cells (MICA allele *008) (human, UniProt Q29983 24-331); experiment: flow cytometry, tumor cells with endogenous MICA/B
T6 construct: it speaks of MICA/B, so MICB may be present as well
T6 chain: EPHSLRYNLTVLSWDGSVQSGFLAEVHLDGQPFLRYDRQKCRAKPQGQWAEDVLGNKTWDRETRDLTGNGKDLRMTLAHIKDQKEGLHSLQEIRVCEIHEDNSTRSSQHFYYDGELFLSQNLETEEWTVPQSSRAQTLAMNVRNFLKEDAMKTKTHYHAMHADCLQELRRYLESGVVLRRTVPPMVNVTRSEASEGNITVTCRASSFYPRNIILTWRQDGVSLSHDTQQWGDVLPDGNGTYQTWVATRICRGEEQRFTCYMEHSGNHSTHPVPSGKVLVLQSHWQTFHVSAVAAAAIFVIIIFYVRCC

[7] = molecular target: T7, human MICA/B endogenously expressed on 786-O cells (MICA allele *008) (human, UniProt Q29983 24-331); experiment: flow cytometry, tumor cells with endogenous MICA/B
T7 construct: it speaks of MICA/B, so MICB may be present as well; also called 786-0
T7 chain: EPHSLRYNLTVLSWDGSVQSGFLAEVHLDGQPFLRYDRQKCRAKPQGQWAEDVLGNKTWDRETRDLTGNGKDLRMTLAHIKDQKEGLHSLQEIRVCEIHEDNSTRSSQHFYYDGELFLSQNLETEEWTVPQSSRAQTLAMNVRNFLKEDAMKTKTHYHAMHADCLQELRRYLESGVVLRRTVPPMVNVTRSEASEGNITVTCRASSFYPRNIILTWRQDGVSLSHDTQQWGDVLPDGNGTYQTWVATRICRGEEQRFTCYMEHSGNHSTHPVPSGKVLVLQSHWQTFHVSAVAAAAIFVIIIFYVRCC

B1: MICA.2 (antibody, human IgG1, kappa, V domains shown)
VH: EVQLVESGGGLVQPGGSLRLSCAASGFTFSTYSMNWVRQAPGKGLEWVSYISYRSRTIYYADSVKGRFTISRDNARNSLYLQMNSLRDEDTAVYYCARWGYGSGGFDYWGQGTLVTVSS
VL: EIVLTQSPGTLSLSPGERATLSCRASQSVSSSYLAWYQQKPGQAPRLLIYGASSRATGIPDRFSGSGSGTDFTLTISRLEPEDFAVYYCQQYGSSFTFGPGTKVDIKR
notes: 3F5 variable regions on human IgG1f and human kappa constant regions, made in CHO-S cells; also called 3F5; recombinant antibody of 3F5
- koff [1]: 0.0246 s⁻¹
- koff [2]: 0.0284 s⁻¹
- koff [3]: 0.0104 s⁻¹
- koff [4]: 0.0232 s⁻¹
- EC50 [5]: 41.9 nM
- EC50 [6]: 1.74 nM
- EC50 [7]: 4.95 nM

B2: 71C2 (antibody, V domains shown)
VH: EVQLVESGGGLVQPGRSLRLSCAASGFTFNNYAMHWVRQAPGKGLEWVSGITWNSDSIGYADSVKGRFTISRDNAKNSLYLQMNSLRAEDTALYYCAKDSVLLWFGGMDVWGQGTTVTVSS
VL: not shown
notes: Hybridoma antibody
- koff [1]: 0.0109 s⁻¹
- koff [2]: 0.0303 s⁻¹
- koff [3]: 0.0116 s⁻¹
- koff [4]: 0.0325 s⁻¹
- EC50 [5]: 36.9 nM
- EC50 [6]: 10.2 nM
- EC50 [7]: 13.8 nM

B3: 24G11 (antibody, V domains shown)
VH: EVQLVQSGAEVKKPGESLKISCKGSGYSFTNYWIGWVRQMPGKGLEWLGIIHPGDSYTRYSPSFQGQVTISADKSISTAYLQWSSLKASDTAIYYCAREGIAATPFDYWGQGTLVTVSS
VL: EIVLTQSPATLSLSPGERATLSCRASQSVSSYLAWFQQKPGQAPRLLIYDASNRATGIPARFSGSGSGTDFTLTISSLEPEDFAVYYCQQRSNWPPTFGQGTKVEIK
notes: also called MICA.54; 24G11 (MICA.54)
- EC50 [5]: 104 nM
- EC50 [6]: 192 nM
- EC50 [7]: 147 nM

B4: 19G6 (antibody, V domains shown)
VH: QVQLVESGGGVVQPGRSLRLSCAASGFTFSNYAMHWVRQAPGEGLEWVALIWYDGSNKFYGDSVKGRFTISRDNSKNTLYLQMNSLSAEDTAVYYCAREGSGHYWGQGTLVTVSS
VL: AIQLTQSPSSLSASVGDRVTITCRASQGISSALAWYQQKPGKVPKSLIYDASSLESGVPSRFSGSGSGTDFTLTISSLQPEDFATYYCQQFNSYPITFGQGTRLEIK
notes: Hybridoma antibody from human IgG transgenic mice, parent of MICA.36; also called 19G6 mAb; hybridoma 19G6
- koff [1]: 1.87 s⁻¹
- koff [2]: 2.28 s⁻¹
- koff [3]: 8.14 s⁻¹
- koff [4]: 2.15 s⁻¹
- EC50 [5]: 3.89 nM
- EC50 [6]: 1.76 nM
- EC50 [7]: 1.37 nM
